Key:
CHOK1-CD47 cells = molecular target: T1, CHOK1-CD47 cells (Homo sapiens, UniProt Q08722); assay: FACS binding of CD47 antibodies to CHOK1-CD47 cells; conditions: Example 4.3
T1 construct: expressed in transfected cells; host or cells: CHO-K1 (CHOK1-CD47, puromycin selection)
Description: The desired overexpressing cell line, CHOK1-CD47 (cultured in RPMI-1640 (ATCC Modification, Gibco, Cat# A10491-01) + 10% FBS (BI, Cat# 04-001-1A) + 1× P/S + 6 µg/ml Puromycin (Gibco, Cat# a1113803, 10 × 1 ml (10 mg/ml))), was expanded to the logarithmic phase. Cells were digested, collected, and pipetted to create a single-cell suspension, followed by centrifugation and removal of the supernatant. The cells were resuspended in FACS buffer (PBS + 2% FBS) and counted, and the cell density was adjusted to 2×10^6/ml. 100 µl/well of this suspension was added to a 96-well plate (Corning, Cat# 3799). […] After three washes with FACS buffer by centrifugation, the cells were resuspended in 200 µl/well of FACS buffer and analyzed using FACS (BECKMAN COULTER, CytoFLEX). Data were fitted and the results were analyzed using software (GraphPad Prism 8).
The desired overexpressing cell line, CHOK1-CD47 (cultured in RPMI-1640 (ATCC Modification, Gibco, Cat# A10491-01) + 10% FBSThe (BI, Cat# 04-001-1A) + 1× P/S + 6 µg/ml Puromycin (Gibco, Cat# A1113803, 10 × 1 ml (10 mg/ml))), was expanded to the logarithmic phase. […] After three washes with FACS buffer by centrifugation, the cells were resuspended in 200 µl/well of FACS buffer and analyzed using FACS (BECKMAN COULTER, CytoFLEX). Data were fitted and the results were analyzed using software (GraphPad Prism 8).

human CD47 antigen = human CD47 antigen (Homo sapiens, UniProt Q08722); assay: Affinity measurement by SPR (BIAcore T200); conditions: 25 °C, 1:1 binding model
Description: The binding affinity between the antigen and the antibody was measured using a BIAcore T200 instrument. The binding strength between the CD47 antigen and the antibody was determined using a CM5 chip (purchased from Cytiva, Cat# 29149603) via amine coupling. First, the CD47 antigen was immobilized onto the CM5 chip. According to the instructions of the Amine Coupling Kit (purchased from Cytiva, Cat# BR100050), using PBST as the running buffer, NHS and EDC were mixed and injected to activate the chip for approximately 420 seconds. The CD47 antigen was diluted to 10 µg/mL in 10 mM sodium acetate (pH 5.5) and injected to achieve an immobilization level of 141.2 RU. Finally, the remaining activated sites were blocked with 1 M ethanolamine (pH 8.5). Subsequently, the affinity of the antibody for the CD47 antigen was determined using the multi-cycle kinetics method. In each cycle, a single concentration of the antibody protein was injected, and the association and dissociation processes between the antibody and the antigen protein were recorded. Finally, the chip was regenerated with Glycine-HCl (pH 1.5). […] Data were analyzed according to a 1:1 binding model, and the kinetic parameters of antibody-antigen binding, including the association rate constant (Ka), dissociation rate constant (Kd), equilibrium dissociation constant (KD), and maximum binding signal (Rmax), were fitted.

[1] = molecular target: T2, binding of CD47 on Raji cells to SIRPα (Homo sapiens, UniProt Q08722); assay: Blocking of SIRPα binding on Raji cells (FACS); format: cell-based
T2 construct: endogenous in cells; host or cells: Raji
Description: The required cell line, Raji (cultured in RPMI-1640 (ATCC Modification, Gibco, Cat# A10491-01) + 10% FBS (BI, Cat# 04-001-1A) + 1× P/S), was expanded to the logarithmic phase. Cells were collected and pipetted to create a single-cell suspension, followed by centrifugation and removal of the supernatant. The cells were resuspended in FACS buffer (PBS + 2% FBS) and counted, and the cell density was adjusted to 2×10^6/ml. 100 µl/well of this suspension was added to a 96-well plate (Corning, Cat# 3799). After centrifugation and removal of the supernatant, 100 µl/well of the antibody sample to be tested (CD47 Antibodies at an initial concentration of 200 nM, with 5-fold gradient dilutions and 8 dilution points, mixed with an equal volume of Human SIRP alpha, mFc (DIMA Biotech, Cat# PME100531) at 16 µg/ml) was added, mixed with the cells, and incubated at 4 °C for 1 hour. Cells were washed by centrifugation with FACS buffer for three times, then added with 100 µl/well of Goat F(ab')2 Anti-Mouse IgG-Fc (PE), pre-adsorbed (abcam, Cat# ab98742, 1:200 dilution) and incubated at 4 °C for 1 hour. After three washes with FACS buffer by centrifugation, the cells were resuspended in 200 µl/well of FACS buffer and analyzed using FACS (BECKMAN COULTER, CytoFLEX). Data were fitted and the results were analyzed using software (GraphPad Prism 8).

T2 sequence (Q08722 19-323): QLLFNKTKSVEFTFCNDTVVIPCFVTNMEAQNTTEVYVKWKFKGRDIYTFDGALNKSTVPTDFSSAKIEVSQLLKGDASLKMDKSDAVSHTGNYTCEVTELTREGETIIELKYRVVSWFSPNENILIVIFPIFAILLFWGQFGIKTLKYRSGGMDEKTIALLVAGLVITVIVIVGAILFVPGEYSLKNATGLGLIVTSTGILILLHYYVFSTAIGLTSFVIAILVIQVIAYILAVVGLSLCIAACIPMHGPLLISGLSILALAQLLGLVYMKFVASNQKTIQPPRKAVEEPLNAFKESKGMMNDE
human CD47 antigen, sequence (Q08722 19-323): as above
T1 sequence (Q08722 19-323): as above

B1: CD47 TMEAbody: CD47 TMEAbody conjugated with PEG of approximately 20K molecular weight (i.e., PEG20K) (conjugate)
VH: QQQLEESGGGLVKPEGSLTLTCTASGFSFSSGYDMCWVRQAPGRGLEWIACIYTRSSGGTCYASWAKGRFTISKTSSTVDLRMTSLTAADTATYFCAGGRSSYRLNLWGQGALVTVSS
VL: DVVMTQTPSPVEAAVGGTVTIKCQASQSISNELSWYQQKPGQPPKLLIYRASTLESGVSSRFKGSGSGTEFTLTISDLECADAATYYCQSTFYGDYGNAFGGGTEVVVK
CHOK1-CD47 cells
  binding to cells lower compared to 70H1: approximately 20 fold
Human CD47 antigen
  Ka: 24400 M⁻¹ s⁻¹
[1]; after the CD47 TMEAbody was activated
  activity in blocking the binding of CD47 on Raji cells to SIRPα: restored
[1]; not activated
  activity in blocking the binding of CD47 on Raji cells to SIRPα: significantly reduced
